Publication PMC4979064, “Crystal structure of the plant receptor-like kinase TDR in complex with the TDIF peptide” (Nature Communications, 2016)
Changes are numbered by the printed parent chain. Blank lines part the entries; values can stand above or below the binder they belong to. Square brackets hold non-standard residues; d marks the D form. Ends that are not written are not given here. Hyp = O=C(O)[C@@H]1C[C@@H](O)CN1; Ahx = NCCCCCC(=O)O

Key:
Settings in all cases: both partners purified
[1] = molecular target: T1, lysine methylated C259A/C540S TDR mutant, extracellular domain (residues 31–631) (Arabidopsis thaliana, UniProt Q9FII5 31-631, C259A | C540S, lysine residues methylated; digested with Endo H (deglycosylated)); experiment: crystal structure; TDR and TDIF mixed at a molar ratio of 1:1.5, vapour diffusion at 20 °C, 4 M sodium nitrate, 0.1 M sodium acetate pH 4.8, 200 mM ammonium sulfate; 3.0 Å, molecular replacement
T1 construct: TDR/PXY, Arabidopsis thaliana, extracellular LRR domain, residues 31-631, with C259A/C540S; also called lysine methylated C259A/C540S mutant; methylated TDR protein; not shown: 10xHis (after an HRV3C protease site), C-terminal, cleaved
T1 sequence (looked up): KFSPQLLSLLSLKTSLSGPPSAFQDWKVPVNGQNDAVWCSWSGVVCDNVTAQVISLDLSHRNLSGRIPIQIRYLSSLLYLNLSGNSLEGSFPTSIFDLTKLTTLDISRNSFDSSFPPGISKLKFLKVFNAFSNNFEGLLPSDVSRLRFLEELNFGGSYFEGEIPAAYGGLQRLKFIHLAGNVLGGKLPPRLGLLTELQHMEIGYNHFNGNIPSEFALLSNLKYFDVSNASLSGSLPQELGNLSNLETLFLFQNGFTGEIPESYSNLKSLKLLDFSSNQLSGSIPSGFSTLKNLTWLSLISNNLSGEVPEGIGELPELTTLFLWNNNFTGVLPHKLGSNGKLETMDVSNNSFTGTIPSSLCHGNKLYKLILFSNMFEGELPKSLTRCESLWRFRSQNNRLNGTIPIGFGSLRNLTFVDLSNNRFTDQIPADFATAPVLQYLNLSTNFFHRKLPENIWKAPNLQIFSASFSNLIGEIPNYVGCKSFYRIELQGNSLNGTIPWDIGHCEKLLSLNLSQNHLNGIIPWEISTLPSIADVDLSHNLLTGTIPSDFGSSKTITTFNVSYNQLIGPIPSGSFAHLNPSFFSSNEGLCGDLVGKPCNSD

[2] = molecular target: T2, extracellular domain (residues 31–631) of TDR from A. thaliana, wild type (Arabidopsis thaliana, UniProt Q9FII5 31-631); experiment: pull-down; biotinylated TDIF (2 ug) held on Dynabeads M-280 Streptavidin; purified TDR protein added with 0.1 mg/ml BSA, 4 °C, 2 h; wash buffer 20 mM Tris-HCl pH 7.5, 150 mM NaCl; bound protein eluted in SDS sample buffer, SDS-PAGE
T2 construct: TDR/PXY (TDIF receptor/phloem intercalated with xylem), LRR receptor-like kinase, Arabidopsis thaliana, extracellular LRR domain, residues 31-631; The purification told in the methods cleaves the His tag with HRV3C protease; also called wild-type TDR; TDIF receptor; source: Sf9 insect cells (baculovirus), secreted into the culture supernatant, purified
T2 sequence (looked up): T1 sequence (looked up) with A229C, S510C

[3] = molecular target: T1, lysine methylated C259A/C540S TDR …; experiment: as above
[4] = molecular target: T3, C259A/C540S TDR mutant, extracellular domain (residues 31–631), as in the pull-down of Fig. 2e (Arabidopsis thaliana, UniProt Q9FII5 31-631, C259A | C540S); experiment: as above
T3 construct: TDR/PXY, Arabidopsis thaliana, extracellular LRR domain, residues 31-631, with C259A/C540S; it may be the same preparation as m2; also called C259A/C540S mutant; TDR C259A/C540S mutant; source: Sf9 insect cells (baculovirus), purified
T3 sequence (looked up): T1 sequence (looked up)

[5] = molecular target: T4, TDR F161A mutant (in the C259A/C540S extracellular domain, residues 31–631) (Arabidopsis thaliana, UniProt Q9FII5 31-631, C259A | C540S | F161A); experiment: as above
T4 construct: TDR/PXY, Arabidopsis thaliana, extracellular LRR domain, residues 31-631, C259A/C540S background with F161A; source: Sf9 insect cells (baculovirus), purified (Ni Sepharose excel)
T4 sequence (looked up): T1 sequence (looked up) with F131A

[6] = molecular target: T5, TDR S162A mutant (in the C259A/C540S extracellular domain, residues 31–631) (Arabidopsis thaliana, UniProt Q9FII5 31-631, C259A | C540S | S162A); experiment: as above
T5 construct: TDR/PXY, Arabidopsis thaliana, extracellular LRR domain, residues 31-631, C259A/C540S background with S162A; source: Sf9 insect cells (baculovirus), purified (Ni Sepharose excel)
T5 sequence (looked up): T1 sequence (looked up) with S132A

[7] = molecular target: T6, TDR R421A mutant (in the C259A/C540S extracellular domain, residues 31–631) (Arabidopsis thaliana, UniProt Q9FII5 31-631, C259A | C540S | R421A); experiment: as above
T6 construct: TDR/PXY, Arabidopsis thaliana, extracellular LRR domain, residues 31-631, C259A/C540S background with R421A; source: Sf9 insect cells (baculovirus), purified (Ni Sepharose excel)
T6 sequence (looked up): T1 sequence (looked up) with R391A

[8] = molecular target: T7, TDR R423A mutant (in the C259A/C540S extracellular domain, residues 31–631) (Arabidopsis thaliana, UniProt Q9FII5 31-631, C259A | C540S | R423A); experiment: as above
T7 construct: TDR/PXY, Arabidopsis thaliana, extracellular LRR domain, residues 31-631, C259A/C540S background with R423A; source: Sf9 insect cells (baculovirus), purified (Ni Sepharose excel)
T7 sequence (looked up): T1 sequence (looked up) with R393A

binding result [1]: binds
B1: Tracheary element differentiation factor (TDIF) peptide, HEV(Hyp)SG(Hyp)NPISN (peptide)
peptide: HEV[Hyp]SG[Hyp]NPISN
notes: TDIF, 12-residue CLE family peptide with two hydroxyprolines (written P at 4 and 7), encoded by the CLE41 and CLE44 genes in Arabidopsis; the processed peptide from the C-terminus of the precursor; The same peptide is also encoded by CLE44; also called synthesized TDIF peptide; source: synthetic peptide (Eurofins Genomics)

binding result [2]: binds | binding result [3]: binds | binding result [4]: binds | binding result [5]: binds | binding result [6]: binds | binding result [7]: binds | binding result [8]: binds
B2: biotinylated TDIF peptide, HEV(Hyp)SG(Hyp)NPISN-GSGS-(Ahx)-Biotin (peptide)
peptide: HEV[Hyp]SG[Hyp]NPISNGSGS-{Ahx-biotin}
notes: TDIF, 12-residue CLE family peptide with two hydroxyprolines (written P at 4 and 7), encoded by the CLE41 and CLE44 genes in Arabidopsis; linker before (Ahx)-Biotin; also called biotinylated TDIF peptides; source: synthetic peptide (Eurofins Genomics); not shown: Biotin, C-terminal, kept
